Reference: paper doi:10.1101/2025.05.16.654433

T1: GSP-2 (C. elegans PP1 homolog), as found in the MudPIT immunoprecipitations, P48727
T1 chain: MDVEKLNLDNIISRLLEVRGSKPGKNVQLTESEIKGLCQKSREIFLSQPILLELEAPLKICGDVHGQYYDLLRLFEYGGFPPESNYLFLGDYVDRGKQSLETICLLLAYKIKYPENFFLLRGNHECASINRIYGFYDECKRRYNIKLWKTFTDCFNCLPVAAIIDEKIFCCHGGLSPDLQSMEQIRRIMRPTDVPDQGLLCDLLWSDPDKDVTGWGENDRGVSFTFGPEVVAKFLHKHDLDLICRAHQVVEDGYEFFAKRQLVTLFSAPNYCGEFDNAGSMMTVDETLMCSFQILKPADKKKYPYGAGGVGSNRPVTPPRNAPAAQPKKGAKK


Target: T1, GSP-2 (C. elegans PP1 homolog), as …
Test: MudPIT analysis of 3xflag immunoprecipitations
Conditions: chain shown with the change, whole-worm lysates, parent: 10.79

Binder	response (% of total protein) (bait recovered in same sample 0.12 (mutant) vs 0.54 (wild type) % of total protein)	response (% of total protein) (bait recovered in same sample 0.22 (mutant) vs 0.54 (wild type) % of total protein)
APE-1 (C. elegans ASPP homolog), 3xflag-tagged, as in the MudPIT immunoprecipitations, Q9XVN3 H591Y (protein) MVTTSSGGGIGYPANNGVTQVSLIHSSDSVRTVSTAPIYRPTSSMASTMAHKSSTAPFISANQRMSKPPVRVVAQPPPPHPQALSQQYHQQNPMMMYSAPNTRPHVIPTMQVQPTMAAQIKRNNPVNAQFQNPSEMIADYGVKPQSVEMVQRVRAVRRQVADEETELRRLRELEHETAQLQNKNYGRERELNVQGSMLKEAQLELRNASMRAQSLNKHLEEMYRRRQTAAAAALVEQRKMQQHQILLARAANQVSTQEVIRPRASVEPFQVNNTQQQQPSPQMMKSEEFSEKRDLNGQTGSYDAIDGSGDHQKIPTEPSYLAPCKENQQKYSELSKMASTDPHSNHSSPSTSSQKAPTLITFSPPSFEQKINSSTMTRDSPFVERPTSFGDSLDESRLRSGKTDLVSLRSDSLKATKRRSWAASEGTSMSEAEMIHRLLDEQRRGRSHFIPQLPTSQEEPSAITSETYAEEVVNSESKQVATSSDSTNNLELPTEQMVLGSDTTTEEDASSCSTRSDDGQNLEMEVAIERRTVKGILRRPNEKMNKGRIEFDPLALLLDAALEGELDLVRSSASKLTDVSQANDEGITALYNAICAGHYEIVRFLIENDADVNAQDSDGWTPLHCAASCNNLPMVRQLVEGGGCVLASTLSDMETPVEKCEEDEDGYDGCLKYLSAAHNSTGSINTGKVYAAYGYEAAFEDELSFDAGDELTVIEKDKVDKNWWTCEKNNGEKGQVPRTYLALYPSLKYRKKLNFVMFDLPLESNNNVE	0.87	–
APE-1 (C. elegans ASPP homolog), 3xflag-tagged, as in the MudPIT immunoprecipitations, Q9XVN3 N583K (protein) MVTTSSGGGIGYPANNGVTQVSLIHSSDSVRTVSTAPIYRPTSSMASTMAHKSSTAPFISANQRMSKPPVRVVAQPPPPHPQALSQQYHQQNPMMMYSAPNTRPHVIPTMQVQPTMAAQIKRNNPVNAQFQNPSEMIADYGVKPQSVEMVQRVRAVRRQVADEETELRRLRELEHETAQLQNKNYGRERELNVQGSMLKEAQLELRNASMRAQSLNKHLEEMYRRRQTAAAAALVEQRKMQQHQILLARAANQVSTQEVIRPRASVEPFQVNNTQQQQPSPQMMKSEEFSEKRDLNGQTGSYDAIDGSGDHQKIPTEPSYLAPCKENQQKYSELSKMASTDPHSNHSSPSTSSQKAPTLITFSPPSFEQKINSSTMTRDSPFVERPTSFGDSLDESRLRSGKTDLVSLRSDSLKATKRRSWAASEGTSMSEAEMIHRLLDEQRRGRSHFIPQLPTSQEEPSAITSETYAEEVVNSESKQVATSSDSTNNLELPTEQMVLGSDTTTEEDASSCSTRSDDGQNLEMEVAIERRTVKGILRRPNEKMNKGRIEFDPLALLLDAALEGELDLVRSSASKLTDVSQAKDEGITALHNAICAGHYEIVRFLIENDADVNAQDSDGWTPLHCAASCNNLPMVRQLVEGGGCVLASTLSDMETPVEKCEEDEDGYDGCLKYLSAAHNSTGSINTGKVYAAYGYEAAFEDELSFDAGDELTVIEKDKVDKNWWTCEKNNGEKGQVPRTYLALYPSLKYRKKLNFVMFDLPLESNNNVE	–	0.87
